Data set [1] deals with the molecule itself. Description: AUC; sedimentation velocity, 4°C, 10% glycerol in PBS; DacA and DacA_(1–287) at 40 000 rpm, DacA_(140–358) at 50 000 rpm; mass by the c(M) method in SEDFIT.
Data set [2] deals with the molecule itself. Description: SEC.
Data set [3] deals with the molecule itself. The data set can be described thus: cross-linking; 1.5 µM protein in 50 mM sodium phosphate pH 7.4, 20% glycerol, 5 mM MgCl2, with 35 mM glutaraldehyde for 1 h at room temperature; SDS-PAGE and Western blot with the anti-DacA antibody.

Results on three proteins are retold here after paper PMC3328451, “Mycobacterium tuberculosis Rv3586 (DacA) Is a Diadenylate Cyclase That Converts ATP or ADP into c-di-AMP” (PLoS ONE, 2012).

B1: DacA_(1–287) (domain or fragment)
chain: MHAVTRPTLREAVARLAPGTGLRDGLERILRGRTGALIVLGHDENVEAICDGGFSLDVRYAATRLRELCKMDGAVVLSTDGSRIVRANVQLVPDPSIPTDESGTRHRSAERAAIQTGYPVISVSHSMNIVTVYVRGERHVLTDSATILSRANQAIATLERYKTRLDEVSRQLSRAEIEDFVTLRDVMTVVQRLELVRRIGLVIDYDVVELGTDGRQLRLQLDELLGGNDTARELIVRDYHANPEPPSTGQINATLDELDALSDGDLLDFTALAKVFGYPTTTEAQDS
notes: also called first 287 aa of DacA; DacA lacking the C-terminal HhH domain
B1: the “stoichiometry N” value in data set [1] came out at 4.

B2: Mycobacterium tuberculosis Rv3586 (DacA) (enzyme)
chain: MHAVTRPTLREAVARLAPGTGLRDGLERILRGRTGALIVLGHDENVEAICDGGFSLDVRYAATRLRELCKMDGAVVLSTDGSRIVRANVQLVPDPSIPTDESGTRHRSAERAAIQTGYPVISVSHSMNIVTVYVRGERHVLTDSATILSRANQAIATLERYKTRLDEVSRQLSRAEIEDFVTLRDVMTVVQRLELVRRIGLVIDYDVVELGTDGRQLRLQLDELLGGNDTARELIVRDYHANPEPPSTGQINATLDELDALSDGDLLDFTALAKVFGYPTTTEAQDSTLSPRGYRAMAGIPRLQFAHADLLVRAFGTLQGLLAASAGDLQSVDGIGAMWARHVREGLSQLAESTISDQ
notes: also called native DacA; not shown: His tag, C-terminal, kept
Consider B2, for which, in data set [2], the “stoichiometry N” value came to 8.

B3: DacA_(140–358) (domain or fragment)
chain: VLTDSATILSRANQAIATLERYKTRLDEVSRQLSRAEIEDFVTLRDVMTVVQRLELVRRIGLVIDYDVVELGTDGRQLRLQLDELLGGNDTARELIVRDYHANPEPPSTGQINATLDELDALSDGDLLDFTALAKVFGYPTTTEAQDSTLSPRGYRAMAGIPRLQFAHADLLVRAFGTLQGLLAASAGDLQSVDGIGAMWARHVREGLSQLAESTISDQ
notes: also called last 219 aa of DacA; DacA lacking the N-terminal Dac domain
In the case of B3, the “stoichiometry N” value in data set [3] turned out to be 2.
